In article PMC8307404, “Crystal Structure-Guided Design of Bisubstrate Inhibitors and Photoluminescent Probes for Protein Kinases of the PIM Family” (Molecules, 2021) one finds remaining activity data, which are given here for five compounds.

Common to all, as to experiment: Kinase profiling (radiometric filter-binding)
Type in all cases: biochemical

For one series, the target named is T1, ERK8 (Homo sapiens, UniProt Q8TD08).
T1 sequence (Q8TD08 1-544): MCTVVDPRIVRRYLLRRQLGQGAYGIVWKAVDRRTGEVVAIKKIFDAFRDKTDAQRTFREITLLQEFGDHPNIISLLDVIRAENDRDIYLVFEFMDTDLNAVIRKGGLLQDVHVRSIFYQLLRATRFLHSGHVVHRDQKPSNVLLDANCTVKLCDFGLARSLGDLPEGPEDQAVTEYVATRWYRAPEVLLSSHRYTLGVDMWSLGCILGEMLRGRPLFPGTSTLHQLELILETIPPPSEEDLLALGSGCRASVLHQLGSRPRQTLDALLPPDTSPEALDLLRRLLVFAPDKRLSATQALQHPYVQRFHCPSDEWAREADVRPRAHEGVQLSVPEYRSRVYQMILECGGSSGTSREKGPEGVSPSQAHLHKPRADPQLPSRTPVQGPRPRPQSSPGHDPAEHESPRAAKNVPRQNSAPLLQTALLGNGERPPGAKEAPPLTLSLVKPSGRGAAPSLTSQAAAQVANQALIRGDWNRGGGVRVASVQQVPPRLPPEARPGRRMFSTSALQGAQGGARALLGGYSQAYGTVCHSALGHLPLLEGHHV
The conditions noted are these: ERK8, 1 µM inhibitor; read-out: Residual activity, %. The method, boiled down:
(§1)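 Screening format: radiometric, filter-based capture of phosphorylated substrate by human kinases. Conditions: ATP at/below KM, inhibitor 1 µM (final total). Output: remaining activity in percent of control.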

The next series deals with EPH-A4 (Homo sapiens, UniProt P54764). The conditions noted are these: EPH-A4, 1 µM inhibitor; read-out: Residual activity, %. The method, boiled down:
as §1

The next series addresses PAK2 (Homo sapiens, UniProt Q13177). As to conditions: PAK2, 1 µM inhibitor; read-out: Residual activity, %. The method, boiled down:
as §1

The target of the next series is ERK2 (Homo sapiens, UniProt P28482). The conditions noted are these: ERK2, 1 µM inhibitor; read-out: Residual activity, %. The method, boiled down:
as §1

The next series has as its target T2, ULK2 (Homo sapiens, UniProt Q8IYT8).
T2 sequence (Q8IYT8 1-1036): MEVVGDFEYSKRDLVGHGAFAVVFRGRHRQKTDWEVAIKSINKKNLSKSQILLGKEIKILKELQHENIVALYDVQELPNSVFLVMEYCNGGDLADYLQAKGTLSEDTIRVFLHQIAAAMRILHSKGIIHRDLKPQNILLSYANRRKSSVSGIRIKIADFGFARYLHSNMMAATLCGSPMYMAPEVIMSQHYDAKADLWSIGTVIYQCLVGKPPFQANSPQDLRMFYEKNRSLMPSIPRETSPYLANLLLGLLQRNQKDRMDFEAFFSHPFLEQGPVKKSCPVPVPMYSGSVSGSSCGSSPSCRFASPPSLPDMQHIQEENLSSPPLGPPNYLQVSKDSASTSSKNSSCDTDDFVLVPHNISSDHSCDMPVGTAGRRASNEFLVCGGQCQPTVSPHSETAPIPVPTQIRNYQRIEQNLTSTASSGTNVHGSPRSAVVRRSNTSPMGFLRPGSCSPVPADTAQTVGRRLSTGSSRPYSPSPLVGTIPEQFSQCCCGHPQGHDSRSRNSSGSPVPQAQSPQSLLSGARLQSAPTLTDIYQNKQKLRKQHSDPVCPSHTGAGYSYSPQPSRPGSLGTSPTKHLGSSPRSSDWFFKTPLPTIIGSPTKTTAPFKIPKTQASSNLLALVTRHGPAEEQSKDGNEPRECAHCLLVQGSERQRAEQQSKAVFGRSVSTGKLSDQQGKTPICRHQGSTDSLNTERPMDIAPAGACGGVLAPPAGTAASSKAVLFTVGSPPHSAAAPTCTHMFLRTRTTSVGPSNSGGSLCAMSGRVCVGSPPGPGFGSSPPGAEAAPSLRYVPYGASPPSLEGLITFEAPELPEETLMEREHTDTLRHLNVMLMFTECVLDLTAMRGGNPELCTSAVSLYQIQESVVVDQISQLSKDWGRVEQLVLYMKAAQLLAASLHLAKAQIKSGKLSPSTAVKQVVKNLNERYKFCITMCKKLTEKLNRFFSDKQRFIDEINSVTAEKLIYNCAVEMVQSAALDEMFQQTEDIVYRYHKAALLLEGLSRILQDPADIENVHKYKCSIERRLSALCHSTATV
As to conditions: ULK2, 1 µM inhibitor; read-out: Residual activity, %. The method, boiled down: as §1

Another series concerns the target CHK2 (Homo sapiens, UniProt O96017). The conditions noted are these: CHK2, 1 µM inhibitor; read-out: Residual activity, %. The method, boiled down:
as §1

The next series has as its target MAPKAP-K3 (Homo sapiens, UniProt Q16644). The conditions noted are these: MAPKAP-K3, 1 µM inhibitor; read-out: Residual activity, %. The method, boiled down: as §1
The target of a further series is RIPK2 (Homo sapiens, UniProt O43353). The conditions noted are these: RIPK2, 1 µM inhibitor; read-out: Residual activity, %. The method, boiled down: as §1
The target of a further series is T3, PRAK (Homo sapiens, UniProt Q8IW41).
T3 sequence (Q8IW41 1-473): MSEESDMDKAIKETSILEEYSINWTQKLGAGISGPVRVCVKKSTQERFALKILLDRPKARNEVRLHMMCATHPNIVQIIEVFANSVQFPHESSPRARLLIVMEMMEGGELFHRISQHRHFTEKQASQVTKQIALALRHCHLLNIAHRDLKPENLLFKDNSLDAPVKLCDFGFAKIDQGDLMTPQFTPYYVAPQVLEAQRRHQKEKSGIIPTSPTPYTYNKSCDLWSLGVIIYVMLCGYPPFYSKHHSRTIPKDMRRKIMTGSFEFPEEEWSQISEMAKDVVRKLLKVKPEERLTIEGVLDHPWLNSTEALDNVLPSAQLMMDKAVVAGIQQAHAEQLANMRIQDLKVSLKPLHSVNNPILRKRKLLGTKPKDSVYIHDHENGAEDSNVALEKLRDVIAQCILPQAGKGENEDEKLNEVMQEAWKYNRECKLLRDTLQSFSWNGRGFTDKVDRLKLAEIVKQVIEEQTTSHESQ
The conditions noted are these: 1 µM inhibitor, read-out: Residual activity, %. The method, boiled down: as §1

Structures are written as SMILES. Square brackets hold non-standard residues; d marks the D form. Peptide text beside a SMILES is read from it. * marks the point of attachment. X3 = O=C(CCCCCNCc1nc2c(sc3cc(Br)cnc32)c(=O)[nH]1)*

Chain of MAPKAP-K3 (Q16644 whole entry): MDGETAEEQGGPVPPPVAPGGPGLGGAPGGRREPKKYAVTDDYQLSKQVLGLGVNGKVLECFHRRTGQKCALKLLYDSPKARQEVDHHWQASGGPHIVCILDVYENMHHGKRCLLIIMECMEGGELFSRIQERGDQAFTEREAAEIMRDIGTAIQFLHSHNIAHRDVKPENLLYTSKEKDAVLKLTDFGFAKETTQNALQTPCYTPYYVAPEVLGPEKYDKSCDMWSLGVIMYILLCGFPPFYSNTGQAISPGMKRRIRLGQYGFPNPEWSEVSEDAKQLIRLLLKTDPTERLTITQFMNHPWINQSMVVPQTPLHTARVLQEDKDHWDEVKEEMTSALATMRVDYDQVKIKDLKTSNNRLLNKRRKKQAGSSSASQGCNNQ
Chain of RIPK2 (O43353 whole entry): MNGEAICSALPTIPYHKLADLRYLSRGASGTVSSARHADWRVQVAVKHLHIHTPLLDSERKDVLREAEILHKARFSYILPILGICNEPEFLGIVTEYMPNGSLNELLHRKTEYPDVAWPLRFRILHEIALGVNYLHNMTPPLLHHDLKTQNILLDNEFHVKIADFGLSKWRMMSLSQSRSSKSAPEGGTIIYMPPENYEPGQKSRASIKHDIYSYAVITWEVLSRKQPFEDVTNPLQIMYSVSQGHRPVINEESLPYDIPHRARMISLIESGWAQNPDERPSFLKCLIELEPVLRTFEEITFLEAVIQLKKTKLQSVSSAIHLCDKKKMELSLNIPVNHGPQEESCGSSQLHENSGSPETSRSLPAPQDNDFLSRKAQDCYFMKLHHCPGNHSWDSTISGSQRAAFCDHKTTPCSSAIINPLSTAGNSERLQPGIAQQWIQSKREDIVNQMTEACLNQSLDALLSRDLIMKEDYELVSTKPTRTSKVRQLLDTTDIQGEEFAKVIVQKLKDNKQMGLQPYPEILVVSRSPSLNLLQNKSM
Chain of ERK2 (P28482 whole entry): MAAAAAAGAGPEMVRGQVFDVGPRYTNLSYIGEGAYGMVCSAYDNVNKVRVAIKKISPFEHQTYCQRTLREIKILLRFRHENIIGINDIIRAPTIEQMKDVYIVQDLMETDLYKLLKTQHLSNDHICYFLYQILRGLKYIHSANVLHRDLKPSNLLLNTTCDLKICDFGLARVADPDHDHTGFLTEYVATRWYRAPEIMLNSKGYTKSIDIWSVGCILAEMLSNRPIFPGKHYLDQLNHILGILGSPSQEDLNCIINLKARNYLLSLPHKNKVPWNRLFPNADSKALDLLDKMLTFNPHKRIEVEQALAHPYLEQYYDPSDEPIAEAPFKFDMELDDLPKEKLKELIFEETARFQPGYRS
Chain of EPH-A4 (P54764 20-986): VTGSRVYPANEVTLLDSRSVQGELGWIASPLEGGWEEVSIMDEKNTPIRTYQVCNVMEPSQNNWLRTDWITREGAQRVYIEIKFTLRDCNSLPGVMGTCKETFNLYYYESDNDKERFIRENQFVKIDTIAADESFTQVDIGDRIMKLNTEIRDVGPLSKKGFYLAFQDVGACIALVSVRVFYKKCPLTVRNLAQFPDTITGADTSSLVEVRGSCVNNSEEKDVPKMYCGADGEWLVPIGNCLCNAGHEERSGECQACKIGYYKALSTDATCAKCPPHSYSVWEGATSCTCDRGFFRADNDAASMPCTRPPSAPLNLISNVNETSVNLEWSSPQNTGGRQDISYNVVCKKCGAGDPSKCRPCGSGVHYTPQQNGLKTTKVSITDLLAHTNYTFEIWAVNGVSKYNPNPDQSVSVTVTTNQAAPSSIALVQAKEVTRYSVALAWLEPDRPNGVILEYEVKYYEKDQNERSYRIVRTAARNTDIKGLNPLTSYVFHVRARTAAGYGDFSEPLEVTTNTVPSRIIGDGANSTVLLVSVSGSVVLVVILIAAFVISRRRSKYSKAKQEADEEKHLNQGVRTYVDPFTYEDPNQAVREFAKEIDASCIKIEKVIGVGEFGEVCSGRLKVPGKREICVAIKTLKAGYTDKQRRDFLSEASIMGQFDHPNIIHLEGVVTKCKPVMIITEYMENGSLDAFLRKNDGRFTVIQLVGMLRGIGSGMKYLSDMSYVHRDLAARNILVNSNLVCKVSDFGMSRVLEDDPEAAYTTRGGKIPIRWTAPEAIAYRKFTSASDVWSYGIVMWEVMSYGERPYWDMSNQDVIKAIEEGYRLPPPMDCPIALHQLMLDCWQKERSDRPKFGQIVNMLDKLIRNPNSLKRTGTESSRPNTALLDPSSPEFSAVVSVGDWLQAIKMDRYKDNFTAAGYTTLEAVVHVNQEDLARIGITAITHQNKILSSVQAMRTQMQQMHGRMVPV
Chain of CHK2 (O96017 whole entry): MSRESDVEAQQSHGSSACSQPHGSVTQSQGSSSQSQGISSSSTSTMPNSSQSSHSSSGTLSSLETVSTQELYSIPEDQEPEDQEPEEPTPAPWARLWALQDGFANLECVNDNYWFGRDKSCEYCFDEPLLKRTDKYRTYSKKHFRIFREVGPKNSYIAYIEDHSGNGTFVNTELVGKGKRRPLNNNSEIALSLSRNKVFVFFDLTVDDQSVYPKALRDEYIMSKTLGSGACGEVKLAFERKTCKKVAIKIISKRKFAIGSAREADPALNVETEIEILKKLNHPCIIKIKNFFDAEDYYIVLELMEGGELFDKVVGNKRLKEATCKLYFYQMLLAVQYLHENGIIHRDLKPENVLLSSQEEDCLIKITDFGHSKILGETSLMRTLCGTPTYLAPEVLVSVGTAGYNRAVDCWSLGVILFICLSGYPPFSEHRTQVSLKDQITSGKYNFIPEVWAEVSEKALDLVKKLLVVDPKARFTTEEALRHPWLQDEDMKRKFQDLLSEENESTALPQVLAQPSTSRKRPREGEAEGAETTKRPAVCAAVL
Chain of PAK2 (Q13177 whole entry): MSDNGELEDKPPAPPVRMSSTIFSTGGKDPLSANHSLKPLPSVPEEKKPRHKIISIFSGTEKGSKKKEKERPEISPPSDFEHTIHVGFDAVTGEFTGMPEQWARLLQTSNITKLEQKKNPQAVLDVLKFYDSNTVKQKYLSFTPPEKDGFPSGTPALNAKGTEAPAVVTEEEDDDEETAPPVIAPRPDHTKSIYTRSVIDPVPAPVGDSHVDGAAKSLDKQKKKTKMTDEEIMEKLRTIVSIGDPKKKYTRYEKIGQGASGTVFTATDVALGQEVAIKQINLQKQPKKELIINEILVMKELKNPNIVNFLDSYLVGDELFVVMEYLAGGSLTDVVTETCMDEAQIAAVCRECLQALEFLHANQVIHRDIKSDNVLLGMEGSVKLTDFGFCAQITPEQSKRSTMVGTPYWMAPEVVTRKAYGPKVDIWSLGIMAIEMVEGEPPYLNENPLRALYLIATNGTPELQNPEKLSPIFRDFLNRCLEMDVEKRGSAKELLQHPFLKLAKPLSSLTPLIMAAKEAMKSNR

For the compound `N=C(N)NCCC[C@@H](NC(=O)CCCCCNC(=O)Cn1cnc2c(I)c(I)c(I)c(I)c21)C(=O)N[C@H](CCCNC(=N)N)C(=O)N[C@H](CCCNC(=N)N)C(=O)N[C@H](CCCNC(=N)N)C(=O)N[C@H](CCCNC(=N)N)C(=O)N[C@H](CCCNC(=N)N)C(=O)N[C@H](CCCCN)C(N)=O` [ARC-3125, TIBI-CH2-C(=O)-Ahx-(D-Arg)6-D-Lys-NH2], the remaining activity at 1 µM with ERK8 turned out to be 18 ± 9%; with EPH-A4, 97 ± 4%; in the series with PAK2, 29 ± 4%; in the series with ERK2 it was 161 ± 4%; with ULK2, 34 ± 3%; with CHK2, 116 ± 16%. For the same compound, the remaining activity at 1 µM with MAPKAP-K3 was found to be 48 ± 1%; with RIPK2, 37 ± 6%; with PRAK it was 112 ± 3%.
For `N=C(N)NCCC[C@@H](NC(=O)CCCCCNCc1nc2c(sc3cc(Br)cnc32)c(=O)[nH]1)C(=O)N[C@H](CCCNC(=N)N)C(=O)N[C@H](CCCNC(=N)N)C(=O)N[C@H](CCCNC(=N)N)C(=O)N[C@H](CCCNC(=N)N)C(=O)N[C@H](CCCNC(=N)N)C(=O)N[C@H](CCCCN)C(N)=O` [ARC-3126, BPTP-Ahx-(D-Arg)6-D-Lys-NH2] (X3-[dR][dR][dR][dR][dR][dR][dK]-NH2), the remaining activity at 1 µM was determined as 49 ± 30% with ERK8; 107 ± 13% with EPH-A4; 72 ± 5% with PAK2; 166 ± 1% with ERK2; 104 ± 9% with ULK2; 76 ± 15% in the series with CHK2. Also, the remaining activity at 1 µM was determined as 43 ± 7% with MAPKAP-K3, 99 ± 6% in the series with RIPK2 and 97 ± 7% with PRAK.
For `N=C(N)NCCC[C@@H](NC(=O)CNC(=O)[C@@H](CCCNC(=N)N)NC(=O)[C@@H](CCCNC(=N)N)NC(=O)CCCCCCCNCc1nc2c(sc3cc(Br)cnc32)c(=O)[nH]1)C(=O)N[C@H](CCCCN)C(N)=O` [Compound 1, BPTP-Aoc-(D-Arg)2-Gly-D-Arg-D-Lys-NH2], the remaining activity at 1 µM came out at 109 ± 8% in the series with ERK8; 97 ± 2% in the series with EPH-A4; 99 ± 9% with PAK2; 101 ± 14% in the series with ERK2; 115 ± 5% in the series with ULK2; 107 ± 9% with CHK2. Also, the remaining activity at 1 µM with MAPKAP-K3 was found to be 111 ± 6%; in the series with RIPK2 it was 62 ± 7%; with PRAK it was 104 ± 13%.
Turning to `N=C(N)NCCC[C@@H](NC(=O)CNC(=O)[C@@H](CCCNC(=N)N)NC(=O)[C@@H](CCCNC(=N)N)NC(=O)CCCCCCCNCc1nc2c(sc3ccc(Br)cc32)c(=O)[nH]1)C(=O)N[C@H](CCCCN)C(N)=O` [Compound 2, BBTP-Aoc-(D-Arg)2-Gly-D-Arg-D-Lys-NH2], the remaining activity at 1 µM is 78 ± 17% with ERK8; 103 ± 16% with EPH-A4; 100 ± 10% with PAK2; 102 ± 1% with ERK2; 127 ± 9% in the series with ULK2; 103 ± 2% with CHK2. The remaining activity at 1 µM in the series with MAPKAP-K3 came to 110 ± 11%; with RIPK2, 72%; with PRAK, 89%.
As to `N=C(N)NCCC[C@@H](NC(=O)CNC(=O)[C@@H](CCCNC(=N)N)NC(=O)[C@@H](CCCNC(=N)N)NC(=O)Cn1cc(CNCc2nc3c(sc4ccc(Br)cc43)c(=O)[nH]2)nn1)C(=O)N[C@H](CCCCN)C(N)=O` [Compound 3, BBTP-Amt-(D-Arg)2-Gly-D-Arg-D-Lys-NH2], the remaining activity at 1 µM is 83 ± 2% in the series with ERK8; 95 ± 5% with EPH-A4; 91 ± 4% in the series with PAK2; 104 ± 5% with ERK2; 104 ± 11% in the series with ULK2; 52 ± 10% with CHK2. Also, the results for the remaining activity at 1 µM with MAPKAP-K3, in the series with RIPK2 and with PRAK were 85 ± 5%, 71 ± 8% and 79 ± 7%, respectively.
